Measurements: the nanobody polyreactivity screen of Harvey et al. (2022)

Experiment: yeast display, Sf9 membrane polyspecificity reagent, FACS + sequencing; frameworks hold sequencing errors
Outline: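 Genes from sorted yeast were amplified by colony PCR, read by MiSeq 2 × 250 sequencing and filtered on CDR length. These cells carried a synthetic nanobody library in Saccharomyces cerevisiae BJ5465 and were sorted by FACS into low and high (top ~1%) gates on anti-HA and streptavidin fluorescence. Polyreactivity is labelled according to the gate of origin.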

Row | Sequence | polyreactivity (PSR sort gate)
1 | QVQLVESGGGLVQAGGSLRLSCAASGSTFYRNAMGWYRQAPGKEREFVAAISFRGGGTYADSVKGRFTISRDNAKNTVYLQMNSLIPEDTAVYYCAADHLSYRRRYEYWGQGTQVTVSS | low polyreactivity
2 | QVQLVESGGGLVQAGGSLRLSCAASGSTFYYYAMGWYRQAPGKERELVASISDDGSTNYADSVKGRFTISRDNAKNTVYLQMNSLKPEDTAVYYCAAVWWHQFGSAWYQMGYWGQGTQVTVSS | low polyreactivity
3 | QVQLVESGGGLVQAGGSLRLSCAASGITFKYYAMGWYRQAPGKESELVAAISRSGSSTYYADSVKGRFTISRDNAKNTVYLQINSLTPEDTAVYYCAADWKSKRTDKYDSWGQGTQVTVSS | high polyreactivity
4 | QVQLVESGGGLVQAGRSLRLTCAASGSTFSIYVMGWYRQAPGKERELVAAITWSDGIKYYADSVKGRFTISRDNAKNTVYLQMNSLKRDDTAVYYCRDSHPSYRPGTVRYDYLGQGTQVTVSS | low polyreactivity
5 | QVQLVESGGGLVQAGGSLRLSCAASGRICTRYMGWYRQAPGKERELVATINWSGGSTYYADSVKGRFTISRDNAKNTVYLQMNSLKPEDTAVYYGNARNVDFYYVQYNGAKIFDYWGQGTQVTVSS | low polyreactivity
6 | QVQLVESGGGLVQAGGSLRLSCAASGRIFYGYAMGWYRQAPGKDRELVATISRSGARTHYADSVKGRFTISRDNAKNTVYLQMNSLKQEDTAVYYCAADVYLSRYEKYGYWGQGTQVTVSS | high polyreactivity
7 | QDALVESCGGLVQAGGSLRLICAASGSTFDTYALGWYRQAPAKEWELVAGISWSGGSTFFADSVKGRFTISRDNAKNTVSLQMNSLKPEDTAVYDCAKQLWVGVKYDYWGQGPQVTVSS | low polyreactivity
8 | QVQLVESGGGLVQAGGSLRLSCAASGSTFVSYAMGWYRQAPGKERELVAGITRRGGTTYYADSVKGRFTISRDNAKNTVYLQMNSLKPEDTAVYYCARYSLYTGYRRYPLDYDYWGQGTQVTVSS | high polyreactivity
9 | QVQLEESGGGLVQAGGSLRLSCAASGFNFAAYTMGWNRQAPGKEREWVAGISKRGGTTYYADSVKGRFTISRDNAKNTVYLQMNSLKPEDTAVYYCAASRYVTTSRYQYNHWGQGTQVTVSS | high polyreactivity
10 | QVQLQESGGGLVQAGGSLRLSCAASGTITVLYKMGWFRQAPGKEREFVASMNYGTSTYYADSVKGRFTVSRDSAKNTVYLQMNSLKPEDTAVYYCAAAYRWQDVYRYWGQGTQVTVSS | low polyreactivity
11 | QVQLVESGGGLVQAGGSLRLSCAASGLTFYLYVMGWYRQAPGKERELVAAISRRGGTTYYADSVKGRFTISRDNAKNTVYLQMNSLKPEDTAVYYCAADFFAGTQRTFDYWGQGTQVTVSS | high polyreactivity
12 | QVQLVESGGGLVQAGGSLRLSCAASGRIFGRNAMGWYRQAPGKERELVAGISGRGGITYYADSVKGRFTISRDNAKNTVYLQMNSLKPEDTAVYYCAATGGDYYDFSYWGQGTQVTVSS | high polyreactivity
13 | QVQLVESGGGLVQAGGSLRLSCAASGGIFRYYAMGWYRQAPGKERELVAAISSGGRTYYADSVKGRFTISRDNAKNTVYLQMNSLKPEDTAVYYCNADRYWGYDYWGQGTQVTVSS | high polyreactivity
14 | QVQLVESGGGLVQAGGSLRLSCAASGSTLPYYAMGWYRQAPGKERELVAAITSSGGDTYYADSVKGRFTISRDNAKNTVYLQMNSLKPEDTAVYYCAKSYSARSTVRKLFYFAYDYWGQGTQVTVSS | low polyreactivity
15 | QVQLVESGGGLVQAGGSLRLSCAASGSTFGYYAMGWYRQAPGKERELVAAITRGGGRTYYADSVKGRFTISRDNAKNTVYLQMNSLKPEDTAVYYCAAVEPTREYYYWGQGTQVTVSS | high polyreactivity
16 | QGQLVESGGGLVQAGGSLRLSCAASGGTFEYNTMGWYRQAPGKERELVAAIRSSTVRTYYADSVKGRFTISRDNAKNTVYLQMNSLKPEDTAVYYCAATRYRKYWGQGTQVTVTS | high polyreactivity
17 | QVQLVESGGGLVQAGGRLRLSCADSGSTFVNSVMGWYRPAPGKERELVAGIRFRGGRTYYADSVKGRFTISRDNAKNTVYLQMNSLKPEDTAVYYCAKVQRQSVGFDYWGQGTQVTVSS | high polyreactivity
18 | QVQLVESGGGLVQAGGSLRLSCAASGSTFGAYAMGWYRQAPGKEREFVAGISVRGGSTYYADSVKGRFTISRDNAKNTVYLQMNSLKPEDTAVYYCAARRVDTRFHVRYRYYYWGQGTQVTVSS | high polyreactivity
19 | QVQLVESGGGLVQAGGSLRLSCAASGLIFNFYAMGWYRPAPGKEREFVAAISWNAGSTYYADSVKGRFTISRDNAKNTVYLQMNSLKPEDTAVYYCNADQDYQGARPSGMDYWGQGTQVTVSS | low polyreactivity
20 | QVQHVESGGGLVQAGGSLRLSCAASGSTFDYNAMGWYRQAPGKERELVAAISFIGGATDYADCVKGRFTISRDNAKNTVYLLMNSLKPEDSGVYYCAADTTSVKDGTFYSWGQGTQVTVSS | low polyreactivity
21 | QVQLVESGGGLVQAGGSLRLSCAASGSTFWLYAIGWYRQAPGTERELVAAIRSGDRTNYADSVKGRFTISRDNAKKTVYLEMNSLKPEDTAVYYCAAVAYLNWTPQYYWGQGTQVTVSS | low polyreactivity
22 | QVQLVESGGGLVQAGGSLRLSCAASGFILVFYAMGWYRQAPGKERELVAAIDWSGTITYYADSVKGRFTISRDNAKKTVYLQINSLKPEDTAVYYCAADGEPFYDFDYWGQRTQVTVSS | high polyreactivity

Row | Sequence | polyreactivity (PSR sort gate)
23 | QVQLVESGGGLVQAGGSLRLSCAASGSIFVIYTMGWYRQAPGKERELVAVITWSTGNTYYADSVKGRFTISRDNAKNTVYLQMNSLKPEDTAVYYCAARTTSRWRSGAYYYWGQGTQVTVSS | high polyreactivity
24 | QVQLVESGGGLVQAGGSLRLSCAASGSIFRAYAMGWYRQAPGKERELVATISGSGGSTDYADSVKGRFTISRDTAKNTVYLQMNSLKPEDTAVYYCARDDPASHKRYWHDYWGQGTQVTVSS | low polyreactivity
25 | QVQLVESGGGLVQAGGSLRLSCAASGRIFPINAMGWYRQAPGKERELVAAISGDGGDTYYADSVKGRFTISRDNAKNTVYLQMNSLKPEDTAVYYCAADALGYDYYYWGQGTQVTVSS | low polyreactivity
26 | QVQLVESGGGLVQAGGSLRLSCAASGSILLWNTMGWYRQAPGKERELVADIRLSASSTYYSDSVKGRITISRDNAKNTVYLQMNSLKPEDTAVSYSAADEYTPDYGQGYDYWGQGTQVTVSS | low polyreactivity
27 | QVQLVESGGGLVQAGGSLRLSCAASGNTFYANTMGWYRQARTERELVAAITSGTYADSVKGRFTISRDNAKNTVYLQMNSLKPEDTAVYYCAREESLYVTDPGPSKLDYWGQGTQVTVSS | low polyreactivity
28 | QDQLVESGGGLVQAGVSLRISCAASGYIFGFYARGWYRQAPGIERELVAAISKSGGNTYYADSVKGRFTISRDNANNTVSLQMNSLKPEDTAVYYCAADSYRYKYNYWGQGTQVTGSS | high polyreactivity
29 | QVQLVESGGGLVQAGGSLRLSCAASGFTFLVNAMGWYRQAPGKERELVAAISSGGSTYYADSVKGRFTISRDNAKNTVYLQMNSLKPEDTAVYYCAAPTDFLFWEFDYWGQCTQVTVSS | low polyreactivity
30 | QVQLVESGGGLVQAGGSLRLSCAASGFIFDYYAMGWYRQAPGKERELVAAITRDGGGTYYADSVKGRFTISRDNEKNSVYLQMNSLKPEDTAVYYCAAETYWYYRANYDYWGQGTQVTVSS | high polyreactivity
31 | QVQLVESGGGLVQAGGSLRLSCAASGSTFYPYPMGWYRQAPGKERELVATISSSGGTTSYADSVKGRFTISRDNAKNTVYLQMNSLKPEDTAVYYGAARGYGSLHHVLGHHDSWGQGTQVTVSS | low polyreactivity
32 | QVQLHESGVGLVQAGGSLRLSCASSGTISYAGPMGWYRQAPGKEREFVAGIGVGSNTNYADSVKGRYTIIRDNAKNTVYLQMNSLKPEDTAVYYCAVGGYAPLGRPYWGQGTQVTVSS | low polyreactivity
33 | QVQLVESGGGLVQAGGSLRLSCAASGYIVYFNAMGWYRQAPGKERELVASIDSGGSTNYADSVKGRFTISRDNAKNTVYLQMNSLKPADTAVYYCAADKLYQPGIGDDYWGQGTQVTVSS | low polyreactivity
34 | QVQLVESGGGLVQAGGSLRLSCAASGYTFWQYAMGWYRQAPGKERELVATITSRGGSTYYADSVKGRFTISRDNAKNTVYLQMNSLKPEDTAVYYCNARRRYSTRRSDYWGQGTQVTVSS | high polyreactivity
35 | QVQLVESGGGLVQAGGSLRLSCAASGFIFQHYAMGWYRQAPGKERELVAAISKSGGSTYYADSVKGRFTISRDNAKNTVYLQMNSLKPEDTAVYYCAKVAVAGRGSGNYINHRFDYWGQGTQVTVSS | high polyreactivity
36 | QVQLVESGGGLVQAGGSLRLSCAASGIIFYWNAMGWYRQAPGKERELVAGITRGGSTYYADSVKGRFTISRDNATNTVYLLMNSLKPEDTAVYYCAKRQASRRVSYSRYDYWGQGTQVTVSS | high polyreactivity
37 | QVQLVESGGGLVQAGGSLRLSCAASGSTFDGYAMGWYRQAPGKERELVAAISRSGGRTYNADSVKGRFTISRDYAKNTVYLQMNSLKPEDTAVYYCAAYKPRPQYTDDDYWGQGTQVTVSS | high polyreactivity
38 | QVQLVESGGGLVQAGGRLRLSCAASGFIFSLYAMGWYRQAPGKERELVAGISESGGSTYYADSVKGRFTISRDNAKNTVYLQMNSLKPEDTAVYYCNADDTVYFIKAGDYWGQGTQVTVSS | high polyreactivity
39 | QVQLVESGGGLVQAGGSLRLSCAASGRIFPYYVMGWYRQAPGKERELVAAISRSGSSTYYADSVKGRFTITRDNAKNTVYLQMNSLKPEDTAVYYCAADYNWSPYYTRGDYWGQGTQVTVSS | high polyreactivity
40 | QGQLVETGGGLVQAGGSLRLSCAASGRIFDDNAMGWYRQAPGKERELVASITVSTGSTYYADSVKGRFTISRDNAKNTVYLKMNSLKPEDTAVYYCAKDNSLPDYDYWGQGSQVTVSS | low polyreactivity
41 | QVQLVESGGGLVQAGGSLRLTCAASGRILRINTMGWYRQAPGKEMELVAAISLSGGTTYYAHSVKGRFTISRDNAKNTVYLQMNSVKPEDTAVYYCYKAIWYAEYDYWGQGTQVTVSS | low polyreactivity
42 | QVQLVESGVGLVQAVGSLRISCAACGSIFGRYGMGWYRQAPGKERELVAAITSGTRTNYADSVKGRFTISRDNAKNTVYLQMNSLKPEDTAVYYCNALRLRGIYEYGYWGLGTQVTVSS | low polyreactivity
43 | QVQLVESGGGLVQAGGSLRLSCADSGSIFIANAMGWYRPAPGKERELVAAIDSGGSTNYADSVKGRFTSSRDNAKNTVYLQMNSLKPEDTAVYYCAADGTLTAPGGDYWGQGTQVTVSS | high polyreactivity
